Data as given in patent publication EP1007561B1.

Molecular target: opiate receptors of rat brain homogenate ([3H]-Naloxone binding sites, non-selective binding assay) (rat)
Experiment: displacement of 1.0 nM [3H]-Naloxone from rat brain homogenate, filtration; compound at 10 nM

% INHIBITION AT 10 nM: 1.28%
Substance: CCI-H (20% HSA•MPA-AEA3-Dyn A 2-17-NH2) (from UniProt P02768 25-609)
